Common to all, as to experiment: purified protein
Holding throughout (details): amino acid-dependent exchange of 32P from PPi into ATP

Substrate in data set [1]: O=C(O)[C@@H]1CCCN1
Substrate in data set [2]: CCC[C@H]1CN[C@H](C(=O)O)C1
The format is biochemical, Streptomyces caelestis.

Substrate in data set [3]: CCCCC[C@H]1CN[C@H](C(=O)O)C1
The format is biochemical, Streptomyces caelestis.

Substrate in data set [4]: CCC[C@H]1CN[C@H](C(=O)O)C1
The data set is classed as biochemical, Streptomyces lincolnensis.

The text below walks through data of PMC5730197, “Evolution-guided adaptation of an adenylation domain substrate specificity to an unusual amino acid” (PLoS ONE, 2017).

B1: CcbC (Streptomyces caelestis; V306G) (protein)
chain: MNTSTVRNSLSTLLADTAAATPGATALREPGGDTTYRDLAALAGGIQTALAEAGVRPGDRVAVLAPQTAAAVAAVHAVLSAGAAYVPLDPASPPARWAAVCGMSTPRAVVGTRDALAKLTAELPHLATVDLEAPWPEAPLAPVEREAADLGAVLPTSGSTGVPKGVAISREALLAFASWMVDTFEVGADDVIAGFSPLHFDVSVFSLFGAALTGAALAPAPPQLAGFPHELASWADDAGITVWYSVPYPLARLGTLDAVVLEQRLGRLRCVCFAGEVFPHRQLATLMSKMPWVRYTNLYGPTETNGCTFEQVLAPPDEAIAIGSPACGAECWVERDGERVDTEGAVGELIVAGPTVADGYWGNEDETARRFRFGREYRSGRAYATGDQVRILPDGRYAYLGRQDHMVKIRGQRLELEEVESVLGTADGVTGCCVVAVTPPGRPALLCAAVVGDQLDHAALRSHCRGRLPSWAIPQRFLEVPAIPLTSTGKTDRQEVRRRVMAELV
In general, Km refers to the substrate concentration at which the rate is half of its maximum. Consider B1, for which, in the data set “purified protein [1]”, the Km is 37 ± 2 mM.

B2: CcbC (Streptomyces caelestis; V306G/Y244L) (protein)
chain: MNTSTVRNSLSTLLADTAAATPGATALREPGGDTTYRDLAALAGGIQTALAEAGVRPGDRVAVLAPQTAAAVAAVHAVLSAGAAYVPLDPASPPARWAAVCGMSTPRAVVGTRDALAKLTAELPHLATVDLEAPWPEAPLAPVEREAADLGAVLPTSGSTGVPKGVAISREALLAFASWMVDTFEVGADDVIAGFSPLHFDVSVFSLFGAALTGAALAPAPPQLAGFPHELASWADDAGITVWLSVPYPLARLGTLDAVVLEQRLGRLRCVCFAGEVFPHRQLATLMSKMPWVRYTNLYGPTETNGCTFEQVLAPPDEAIAIGSPACGAECWVERDGERVDTEGAVGELIVAGPTVADGYWGNEDETARRFRFGREYRSGRAYATGDQVRILPDGRYAYLGRQDHMVKIRGQRLELEEVESVLGTADGVTGCCVVAVTPPGRPALLCAAVVGDQLDHAALRSHCRGRLPSWAIPQRFLEVPAIPLTSTGKTDRQEVRRRVMAELV
notes: full-length stand-alone A-domain, N-terminal His6 tag kept, pET28b (pccbC), E. coli BL21(DE3)
The kcat is the maximal rate divided by the concentration of active sites. In general, kcat/Km refers to the turnover number divided by the Michaelis constant. With B2, in “purified protein [2]”, the Michaelis-Menten constant (Km) worked out at 24 ± 3 mM, the kcat came to 0.001 ± 5e-05 s⁻¹ and the specificity constant (kcat/Km) was determined as 0.0433 M⁻¹ s⁻¹.

B3: CcbC (Streptomyces caelestis; F205A/V306G/Y244L) (protein)
chain: MNTSTVRNSLSTLLADTAAATPGATALREPGGDTTYRDLAALAGGIQTALAEAGVRPGDRVAVLAPQTAAAVAAVHAVLSAGAAYVPLDPASPPARWAAVCGMSTPRAVVGTRDALAKLTAELPHLATVDLEAPWPEAPLAPVEREAADLGAVLPTSGSTGVPKGVAISREALLAFASWMVDTFEVGADDVIAGFSPLHFDVSVASLFGAALTGAALAPAPPQLAGFPHELASWADDAGITVWLSVPYPLARLGTLDAVVLEQRLGRLRCVCFAGEVFPHRQLATLMSKMPWVRYTNLYGPTETNGCTFEQVLAPPDEAIAIGSPACGAECWVERDGERVDTEGAVGELIVAGPTVADGYWGNEDETARRFRFGREYRSGRAYATGDQVRILPDGRYAYLGRQDHMVKIRGQRLELEEVESVLGTADGVTGCCVVAVTPPGRPALLCAAVVGDQLDHAALRSHCRGRLPSWAIPQRFLEVPAIPLTSTGKTDRQEVRRRVMAELV
notes: as for B2
B3: in the data set “purified protein [3]”, the Michaelis constant (Km) was 2.5 ± 1 mM, the kcat was found to be 0.000417 ± 5e-05 s⁻¹ and the specificity constant (kcat/Km) stood at 0.167 M⁻¹ s⁻¹. Moreover, in “purified protein [2]”, the Km is 6.4 ± 1 mM, the turnover number (kcat) was 0.000333 ± 1.67e-05 s⁻¹ and the kcat/Km worked out at 0.05 M⁻¹ s⁻¹.

B4: CcbC (Streptomyces caelestis) (protein)
chain: MNTSTVRNSLSTLLADTAAATPGATALREPGGDTTYRDLAALAGGIQTALAEAGVRPGDRVAVLAPQTAAAVAAVHAVLSAGAAYVPLDPASPPARWAAVCGMSTPRAVVGTRDALAKLTAELPHLATVDLEAPWPEAPLAPVEREAADLGAVLPTSGSTGVPKGVAISREALLAFASWMVDTFEVGADDVIAGFSPLHFDVSVFSLFGAALTGAALAPAPPQLAGFPHELASWADDAGITVWYSVPYPLARLGTLDAVVLEQRLGRLRCVCFAGEVFPHRQLATLMSKMPWVRYTNLYGPTETNVCTFEQVLAPPDEAIAIGSPACGAECWVERDGERVDTEGAVGELIVAGPTVADGYWGNEDETARRFRFGREYRSGRAYATGDQVRILPDGRYAYLGRQDHMVKIRGQRLELEEVESVLGTADGVTGCCVVAVTPPGRPALLCAAVVGDQLDHAALRSHCRGRLPSWAIPQRFLEVPAIPLTSTGKTDRQEVRRRVMAELV
As for B4, in “purified protein [1]”, the Michaelis constant (Km) turned out to be 0.36 ± 0.03 mM, the catalytic constant (kcat) was found to be 0.917 s⁻¹ and the kcat/Km turned out to be 2550 M⁻¹ s⁻¹.

B5: LmbC (Streptomyces lincolnensis; I300L) (protein)
chain: MSSSVRLSTLLASAAEARPEAPAVLGETRLPVTYGELAARAGGIQAALAGLGVRAGDRVALLSGRTDADAVAAVHAILAAGAVYVPLDAASPPARWASVSRVCAPTAVVGERALLDRFAAAVPGPRRLALPSDGDELPAGRLDPVRSDGTDVAYLLTTSGSTGVPKCVAHTGAGAVAFLEWMVGAFPVGGDDVFACHAPLHFDVSVASVLGSALGGAALAPVPRELSGFPVELATWIAERAVTVWLSVPYPLARLSGLEERAARERLATLRTVVFAGDVFPHQRLAALMRCAPGARFLNLYGPTETNGCTYEVVDAPPAGPVPIGRPVECAECWVEDDDGRPVDAVGSVGELVVAGPTVAAGYWGVEGHGAERFRTGETCPGGRAYATGDQVRVLPGGRYAFLGRMDNMIKMRGQRFELEEVENAVRLAPGVEDCCVVKVDVRDDHSRLLAVVVGPGAGDPRTLREHCLTRLPSWAVPHRFLTAAALPLGSTGKVDRRALREELVTRGE
notes: full-length stand-alone A-domain, C-terminal His8 tag kept, pET42b (plmbC1), E. coli BL21(DE3)
As for B5, in “purified protein [4]”, the Michaelis constant (Km) turned out to be 0.24 ± 0.009 mM, the catalytic constant (kcat) worked out at 0.75 ± 0.00833 s⁻¹ and the kcat/Km came out at 3080 M⁻¹ s⁻¹.

B6: LmbC (Streptomyces lincolnensis; V274C) (protein)
chain: MSSSVRLSTLLASAAEARPEAPAVLGETRLPVTYGELAARAGGIQAALAGLGVRAGDRVALLSGRTDADAVAAVHAILAAGAVYVPLDAASPPARWASVSRVCAPTAVVGERALLDRFAAAVPGPRRLALPSDGDELPAGRLDPVRSDGTDVAYLLTTSGSTGVPKCVAHTGAGAVAFLEWMVGAFPVGGDDVFACHAPLHFDVSVASVLGSALGGAALAPVPRELSGFPVELATWIAERAVTVWLSVPYPLARLSGLEERAARERLATLRTVCFAGDVFPHQRLAALMRCAPGARFLNIYGPTETNGCTYEVVDAPPAGPVPIGRPVECAECWVEDDDGRPVDAVGSVGELVVAGPTVAAGYWGVEGHGAERFRTGETCPGGRAYATGDQVRVLPGGRYAFLGRMDNMIKMRGQRFELEEVENAVRLAPGVEDCCVVKVDVRDDHSRLLAVVVGPGAGDPRTLREHCLTRLPSWAVPHRFLTAAALPLGSTGKVDRRALREELVTRGE
notes: as for B5
As to B6, in the data set “purified protein [4]”, the Km turned out to be 0.39 ± 0.04 mM, the kcat turned out to be 0.65 ± 0.0167 s⁻¹ and the kcat/Km was 1670 M⁻¹ s⁻¹.

B7: LmbC (Streptomyces lincolnensis; A207F) (protein)
chain: MSSSVRLSTLLASAAEARPEAPAVLGETRLPVTYGELAARAGGIQAALAGLGVRAGDRVALLSGRTDADAVAAVHAILAAGAVYVPLDAASPPARWASVSRVCAPTAVVGERALLDRFAAAVPGPRRLALPSDGDELPAGRLDPVRSDGTDVAYLLTTSGSTGVPKCVAHTGAGAVAFLEWMVGAFPVGGDDVFACHAPLHFDVSVFSVLGSALGGAALAPVPRELSGFPVELATWIAERAVTVWLSVPYPLARLSGLEERAARERLATLRTVVFAGDVFPHQRLAALMRCAPGARFLNIYGPTETNGCTYEVVDAPPAGPVPIGRPVECAECWVEDDDGRPVDAVGSVGELVVAGPTVAAGYWGVEGHGAERFRTGETCPGGRAYATGDQVRVLPGGRYAFLGRMDNMIKMRGQRFELEEVENAVRLAPGVEDCCVVKVDVRDDHSRLLAVVVGPGAGDPRTLREHCLTRLPSWAVPHRFLTAAALPLGSTGKVDRRALREELVTRGE
notes: as for B5
Take B7: in “purified protein [4]”, the Km came to 8.6 ± 1 mM, the catalytic constant (kcat) came out at 0.0733 ± 0.005 s⁻¹ and the kcat/Km amounted to 8.5 M⁻¹ s⁻¹.

B8: LmbC (Streptomyces lincolnensis; L246Y) (protein)
chain: MSSSVRLSTLLASAAEARPEAPAVLGETRLPVTYGELAARAGGIQAALAGLGVRAGDRVALLSGRTDADAVAAVHAILAAGAVYVPLDAASPPARWASVSRVCAPTAVVGERALLDRFAAAVPGPRRLALPSDGDELPAGRLDPVRSDGTDVAYLLTTSGSTGVPKCVAHTGAGAVAFLEWMVGAFPVGGDDVFACHAPLHFDVSVASVLGSALGGAALAPVPRELSGFPVELATWIAERAVTVWYSVPYPLARLSGLEERAARERLATLRTVVFAGDVFPHQRLAALMRCAPGARFLNIYGPTETNGCTYEVVDAPPAGPVPIGRPVECAECWVEDDDGRPVDAVGSVGELVVAGPTVAAGYWGVEGHGAERFRTGETCPGGRAYATGDQVRVLPGGRYAFLGRMDNMIKMRGQRFELEEVENAVRLAPGVEDCCVVKVDVRDDHSRLLAVVVGPGAGDPRTLREHCLTRLPSWAVPHRFLTAAALPLGSTGKVDRRALREELVTRGE
notes: as for B5
As to B8, in “purified protein [1]”, the Michaelis-Menten constant (Km) stood at 54 ± 2 mM, the turnover number (kcat) amounted to 0.217 s⁻¹ and the kcat/Km came out at 4 M⁻¹ s⁻¹. In “purified protein [4]”, the Michaelis constant (Km) was 33 ± 6 mM, the kcat was determined as 0.00617 ± 0.0005 s⁻¹ and the catalytic efficiency (kcat/Km) is 0.183 M⁻¹ s⁻¹.

B9: LmbC (Streptomyces lincolnensis; G308V) (protein)
chain: MSSSVRLSTLLASAAEARPEAPAVLGETRLPVTYGELAARAGGIQAALAGLGVRAGDRVALLSGRTDADAVAAVHAILAAGAVYVPLDAASPPARWASVSRVCAPTAVVGERALLDRFAAAVPGPRRLALPSDGDELPAGRLDPVRSDGTDVAYLLTTSGSTGVPKCVAHTGAGAVAFLEWMVGAFPVGGDDVFACHAPLHFDVSVASVLGSALGGAALAPVPRELSGFPVELATWIAERAVTVWLSVPYPLARLSGLEERAARERLATLRTVVFAGDVFPHQRLAALMRCAPGARFLNIYGPTETNVCTYEVVDAPPAGPVPIGRPVECAECWVEDDDGRPVDAVGSVGELVVAGPTVAAGYWGVEGHGAERFRTGETCPGGRAYATGDQVRVLPGGRYAFLGRMDNMIKMRGQRFELEEVENAVRLAPGVEDCCVVKVDVRDDHSRLLAVVVGPGAGDPRTLREHCLTRLPSWAVPHRFLTAAALPLGSTGKVDRRALREELVTRGE
notes: as for B5
For B9, in the data set “purified protein [4]”, the Michaelis constant (Km) was 5.8 ± 0.6 mM, the turnover number (kcat) is 0.0065 ± 0.000333 s⁻¹ and the specificity constant (kcat/Km) worked out at 1.17 M⁻¹ s⁻¹.
